We go through 2 molecules from patent US20220135656A1 (NIMA ACQUISITION, published 2022).

Positions count from the first letter of the chain named. “And” between values parts separate entries of the source, which are not always exact repeats. Equal values may be shown once. Ends that are not written are not given here. * marks the point of attachment. Biotin = O=C1N[C@H]2[C@H](CS[C@H]2CCCCC(=O)*)N1

Assay [1] addresses T1, peptide 43 (QQQQQQQQQQ).
T1 peptide: Biotin-QQQQQQQQQQ
Briefly: peptide ELISA, biotinylated peptide captured on streptavidin.

The target in assay [2] is T2, PWG-gliadin (wheat).
T2 construct: also called Gluten; glutenin
Briefly: SPR (Biacore T200), gliadin amine-coupled, antibody as analyte; 'as shown in the examples'.

In assay [3] the target is T3, peptide PQQPYPQPQP (SEQ ID NO: 50).
T3 construct: Crude 10-mer of the peptide library from antigen 1/2/3; also called group A peptide
T3 peptide: Biotin-PQQPYPQPQP
Briefly: peptide ELISA; biotinylated crude peptide on streptavidin, mAb 0.5 µg/ml; value given for group A.

The target in assay [4] is T4, peptide PQPQLPYPQP (SEQ ID NO: 51).
T4 construct: Crude 10-mer of the peptide library; also called group A peptide
T4 peptide: Biotin-PQPQLPYPQP
The assay is described as above.

Assay [5] concerns the target T5, peptide QLPYPQPQLP (SEQ ID NO: 52).
T5 construct: Crude 10-mer of the peptide library; also called group A peptide
T5 peptide: Biotin-QLPYPQPQLP
Described as above.

The target of assay [6] is T6, peptide PQLPYPQPQP (SEQ ID NO: 53).
T6 construct: Crude 10-mer of the peptide library; also called group A peptide
T6 peptide: Biotin-PQLPYPQPQP
The description is as above.

For assay [7], the target named is T7, peptide PPQQPYPQPQ (SEQ ID NO: 54).
T7 construct: Crude 10-mer of the peptide library; also called group A peptide
T7 peptide: Biotin-PPQQPYPQPQ
The assay is described as above.

Assay [8] addresses T8, peptide SPQQPYPQPQ (SEQ ID NO: 55).
T8 construct: Crude 10-mer of the peptide library; also called group A peptide
T8 peptide: Biotin-SPQQPYPQPQ
The description is as above.

The target of assay [9] is T9, peptide QPQLPYPQPQ (SEQ ID NO: 56).
T9 construct: Crude 10-mer of the peptide library; also called group A peptide
T9 peptide: Biotin-QPQLPYPQPQ
Described as above.

For assay [10], the target named is T10, peptide PQLPYPQPQL (SEQ ID NO: 57).
T10 construct: Crude 10-mer of the peptide library; also called group A peptide
T10 peptide: Biotin-PQLPYPQPQL
The assay is described as above.

Assay [11] deals with T11, peptide PQQPYPQSQP (SEQ ID NO: 58).
T11 construct: Crude 10-mer of the peptide library; also called group A peptide
T11 peptide: Biotin-PQQPYPQSQP
The description is as above.

Assay [12] addresses T12, peptide PPQLPYPQPP (SEQ ID NO: 59).
T12 construct: Crude 10-mer of the peptide library; also called group A peptide
T12 peptide: Biotin-PPQLPYPQPP
The assay is described as above.

Assay [13] has as its target T13, peptide PFPPQQPYPQ (SEQ ID NO: 60).
T13 construct: Crude 10-mer of the peptide library; also called group B peptide
T13 peptide: Biotin-PFPPQQPYPQ
Briefly: peptide ELISA; biotinylated crude peptide on streptavidin, mAb 0.5 µg/ml; value given for group B.

In assay [14] the target is T14, peptide YPQPQLPYPQ (SEQ ID NO: 61).
T14 construct: Crude 10-mer of the peptide library; also called group B peptide
T14 peptide: Biotin-YPQPQLPYPQ
The description is as above.

Assay [15] concerns the target T15, peptide PFRPQQPYPQ (SEQ ID NO: 62).
T15 construct: Crude 10-mer of the peptide library; also called group B peptide
T15 peptide: Biotin-PFRPQQPYPQ
The description is as above.

In assay [16] the target is T2, PWG-gliadin. Briefly: SPR, Biacore T200; Glutenin amine-coupled to the chip, antibody as analyte 3-243 nM; 1:1 binding fit; Chi2 16 RU2, U-value 2. The method, then:
(§1) In this experiment, glutenin protein was coated through amine coupling method, the antibodies were flowed over the sensor chip as analytes. The experiment was carried out using the following protocol.
(§2) Coat glutenin onto the Series S Sensor Chip CM5 via primary amine groups using the following conditions: [0123] (1) Equilibrate: HBS-EP, flow rate 10 μl/min, 5 min; [0124] […] (3) Couple ligand: inject glutenin (15 μg/ml, 10 mM sodium acetate, pH 4.5), flow rate 10 μl/min, until ˜300 RU of glutenin is coated; [0126] (4) Deactivate excess reactive groups: inject ethanolamine, flow rate 10 μl/min, 7 min.
(§3) In this study, the binding affinities between glutenin and three monoclonal antibodies were determined. The experiment was carried out where glutenin was amine coupled to the sensor chip and antibodies were used as analytes. The result of is with good curve fitting and low U-values, and thus is reliable.

Assay [17] deals with T13, peptide PFPPQQPYPQ (SEQ ID NO: 60). Briefly: peptide ELISA; group B; the number is missing in the cell.
Assay [18] has as its target T14, peptide YPQPQLPYPQ (SEQ ID NO: 61). The assay is described as above.
Assay [19] addresses T15, peptide PFRPQQPYPQ (SEQ ID NO: 62). Described as above.
For assay [20], the target named is T2, PWG-gliadin. Briefly: SPR, Biacore T200; Glutenin amine-coupled to the chip, antibody as analyte 3-243 nM; 1:1 binding fit; Chi2 29.9 RU2, U-value 2. The method, then: as §1, §2, §3

B1: 14G11 monoclonal antibody (antibody, IgG1, V domains shown)
VH: QIQLVQSGPEMKKPGETVKIFCKASGYTLTDYSMHWVKQAPGKGLKWMGWINTETGEPTYADDFKGRCAFSLETSVSTAFLQINNLKNEDMGTYFCASSGAWFSYWGQGTLVTVSA
VL: DVLLTQTPLSLPVSLGDQASISCRSSQTIVQINGNTHLEWFLQKPGQSPKLLIYKVSNRFSGVPDRFSGSGSGTDFTLKISRVEAEDLGIYYCFQGSHVPFTFGSGTKLEIK
notes: also called 14G11 monoclonal Ab
Turning to B1, in [1], the binding result was “no binding”. Besides, the Kd in assay [2] is < 50 nM and ~30 nM; in assay [16], 30.6 nM. Further, the OD450nm in assay [3], in assay [4], in assay [5], in [6], in assay [7] and in assay [8] was about 1 throughout. Further, the OD450nm in [9] was about 1; in assay [10], about 1; in assay [11] it was about 1; in assay [12], about 1; in assay [13] it was under 0.5; in assay [14], under 0.5. Further, the OD450nm in assay [15] was under 0.5. Besides, the koff in assay [16] was found to be 0.00225 s⁻¹. Moreover, the kon in assay [16] was 73600 M⁻¹ s⁻¹.

B2: 13F6 monoclonal antibody (antibody, IgG2b, V domains shown)
VH: QIQLVQSGPELKKPGETVKISCKASGYTFTDYSMHWVRQAPGKGLKWMGWINTETGEPTYADDFKGRFAFSLETSASTAYLQINNLKNEDTATHFCAPSVAWFAYWGQGTLVTVST
VL: B1 VL with L4M, P12S, T28S, I32S, I90V
notes: also called 13F6 monoclonal Ab
For B2, the binding result is listed as “no binding” in assay [1], “binds” in assay [17], “binds” in assay [18] and “binds” in assay [19]. The Kd in assay [2] is < 10 nM and 5 nM to 6 nM (2×); in assay [20], 5.81 nM. In addition, the OD450nm in assay [3], in [4], in assay [5], in assay [6], in assay [7] and in assay [8] was about 2 in each case. For the same molecule, the OD450nm in assay [9], in assay [10], in [11] and in assay [12] was about 2 throughout. For the same molecule, the koff in assay [20] was 0.000663 s⁻¹. The molecule also had a kon in assay [20] of 114000 M⁻¹ s⁻¹.
